Measured values as given in patent US20190359687A1 (Bayer, published 2019).
Each block holds one binder with its values, some of them ahead of it.

How the values were obtained:
[1] = target: T1, Cynomolgus monkey glycophorin A on Cynomolgus monkey red blood cells (Cynomolgus monkey); assay: partition to Cyno RBC, human HemA plasma, 1 min;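 further: FVIII fusion spiked at 1 IU/mL into RBC suspension at whole-blood density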
T1 construct: whole, on cells; also called Cyno GPA; Cyno RBC
Experimental: (§1) To evaluate partition to cynomolgus monkey or human red blood cells, whole blood was draw from Cynomolgus monkey or normal human volunteers in to anticoagulant with 4% sodium citrate (Sigma, St Louis, Mo.). The red blood cells were purified by layering the whole blood on to ficoll followed by low speed centrifugation. The supernatant containing plasma, platelets and white blood cells was discarded and the red blood cell pellet was resuspended in 10 pellet volumes of PBS (50 mM Phosphate buffer, pH7.4, 150 mM NaCl). The red blood cells were then pelleted by slow speed centrifugation and the red blood cells re-suspended in 10 volumes of PBS. This washing step was repeated 4 more times and the red blood cells finally resuspended in a volume of plasma from Hemophilia patients with less than 1% of normal levels of FVIII (GeorgeKing Bio-Medical, Overland Park, Kans.) to generate a total volume equal to the initial blood volume such that the RBC density was equal to that of normal whole blood. BDD and RBC targeted FVIII molecules were then spiked into RBC suspension in HemA plasma at 1 IU/mL, and incubated at room temperature for 2-3 hours with gentle rotation. […] An additional control was performed in which BDD or RBC targeted FVIII molecules were added at 11U/ml into the same human hemophilia A plasma and incubated for 5 minutes and 180 mins. These samples were used to determine the input FVIII activity in the presence of plasma which was used to calculate the percentage of the molecule that was bound to RBC. All plasma samples were then assayed together for FVIII activity using the Coatest SP assay (DiaPharma, Columbus, Ohio). The assay was performed following the manufacturer's instructions in a 96-well plate format. […] The plate was incubated at 37° C. for 10 minutes with shaking between each reagent addition.

[2] = target: T1, Cynomolgus monkey glycophorin A on …; assay: partition to Cyno RBC, human HemA plasma, 5 min;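 further: FVIII fusion spiked at 1 IU/mL into RBC suspension at whole-blood density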
[3] = target: T2, human glycophorin A on human red blood cells (human, UniProt P02724 20-150); assay: partition to human RBC, human HemA plasma, 1 min
T2 construct: whole, on cells; also called human GPA; huGPA
T2 sequence (looked up): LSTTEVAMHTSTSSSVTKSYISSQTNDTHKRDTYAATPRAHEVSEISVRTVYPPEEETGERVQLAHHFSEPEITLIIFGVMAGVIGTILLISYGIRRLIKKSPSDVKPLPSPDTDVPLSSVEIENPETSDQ
Experimental: (§2) The supernatant containing plasma, platelets and white blood cells was discarded and the red blood cell pellet was resuspended in 10 pellet volumes of PBS (50 mM Phosphate buffer, pH7.4, 150 mM NaCl). The red blood cells were then pelleted by slow speed centrifugation and the red blood cells re-suspended in 10 volumes of PBS. This washing step was repeated 4 more times and the red blood cells finally resuspended in a volume of plasma from Hemophilia patients with less than 1% of normal levels of FVIII (GeorgeKing Bio-Medical, Overland Park, Kans.) to generate a total volume equal to the initial blood volume such that the RBC density was equal to that of normal whole blood. BDD and RBC targeted FVIII molecules were then spiked into RBC suspension in HemA plasma at 1 IU/mL, and incubated at room temperature for 2-3 hours with gentle rotation. […] An additional control was performed in which BDD or RBC targeted FVIII molecules were added at 11U/ml into the same human hemophilia A plasma and incubated for 5 minutes and 180 mins. These samples were used to determine the input FVIII activity in the presence of plasma which was used to calculate the percentage of the molecule that was bound to RBC. All plasma samples were then assayed together for FVIII activity using the Coatest SP assay (DiaPharma, Columbus, Ohio). The assay was performed following the manufacturer's instructions in a 96-well plate format. […] The plate was incubated at 37° C. for 10 minutes with shaking between each reagent addition. […] The amount of FVIII activity in the plasma reflects the amount of unbound FVIII. The FVIII activity of the same molecule spiked in to Hemophilia A plasma alone (no RBC) and incubated for 5 minutes was normalized to 100%.

[4] = target: T2, human glycophorin A on human red blood …; assay: partition to human RBC, human HemA plasma, 5 min
Experimental: as §2

[5] = target: T1, Cynomolgus monkey glycophorin A on …; assay: partition to Cyno RBC, human HemA plasma, 15 min;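 further: FVIII fusion spiked at 1 IU/mL into RBC suspension at whole-blood density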
[6] = target: T1, Cynomolgus monkey glycophorin A on …; assay: partition to Cyno RBC, human HemA plasma, 30 min;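 further: FVIII fusion spiked at 1 IU/mL into RBC suspension at whole-blood density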
[7] = target: T1, Cynomolgus monkey glycophorin A on …; assay: partition to Cyno RBC, human HemA plasma, 60 min;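 further: FVIII fusion spiked at 1 IU/mL into RBC suspension at whole-blood density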
Experimental: as §1

[8] = target: T2, human glycophorin A on human red blood …; assay: partition to human RBC, human HemA plasma, 15 min
Experimental: as §2

[9] = target: T2, human glycophorin A on human red blood …; assay: partition to human RBC, human HemA plasma, 30 min
Experimental: as §2

[10] = target: T2, human glycophorin A on human red blood …; assay: partition to human RBC, human HemA plasma, 60 min
Experimental: as §2

[11] = target: T1, Cynomolgus monkey glycophorin A on …; assay: partition to Cyno RBC, human HemA plasma, 120 min;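 further: FVIII fusion spiked at 1 IU/mL into RBC suspension at whole-blood density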
Experimental: as §1

[12] = target: T2, human glycophorin A on human red blood …; assay: partition to human RBC, human HemA plasma, 120 min
[13] = target: T2, human glycophorin A on human red blood …; assay: partition to human RBC, human HemA plasma, 120 min; remark: listed apart in the source
Experimental: as §2

[14] = target: T2, human glycophorin A on human red blood …; assay: partition to human RBC, vWF deficient plasma, 1 min
[15] = target: T2, human glycophorin A on human red blood …; assay: partition to human RBC, vWF deficient plasma, 5 min
[16] = target: T2, human glycophorin A on human red blood …; assay: partition to human RBC, vWF deficient plasma, 15 min
[17] = target: T2, human glycophorin A on human red blood …; assay: partition to human RBC, vWF deficient plasma, 30 min
[18] = target: T2, human glycophorin A on human red blood …; assay: partition to human RBC, vWF deficient plasma, 60 min
[19] = target: T2, human glycophorin A on human red blood …; assay: partition to human RBC, vWF deficient plasma, 120 min
[20] = target: T3, glycophorin A peptide GP5 (human, biotin at the N-terminus); assay: Octet, GP5 peptide on the probe, fusion protein in solution, 1:1 fit
T3 construct: Residues 42 to 61 of the human glycophorin A extracellular domain
T3 peptide: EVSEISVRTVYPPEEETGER

% bound to Cyno RBC [1]: 26.4%
% bound to Cyno RBC [2]: 46%
percentage bound to human RBC [3]: 31.4%
percentage bound to human RBC [4]: 53.8%
% bound to Cyno RBC [5]: 54%
% bound to Cyno RBC [6]: 58%
% bound to Cyno RBC [7]: 68%
percentage bound to human RBC [8]: 71.5%
percentage bound to human RBC [9]: 78.9%
percentage bound to human RBC [10]: 84.1%
% bound to Cyno RBC [11]: 71%
percentage bound to human RBC [12]: 86.7%
percentage bound to human RBC [13]: 86.7%
percentage bound to human RBC [14]: 26%
percentage bound to human RBC [15]: 44.9%
percentage bound to human RBC [16]: 53.8%
percentage bound to human RBC [17]: 57.3%
percentage bound to human RBC [18]: 64.3%
percentage bound to human RBC [19]: 72.7%
B1: TPP-9901 FVIII-scFv fusion protein (other)
chain: ATRRYYLGAVELSWDYMQSDLGELPVDARFPPRVPKSFPFNTSVVYKKTLFVEFTDHLFNIAKPRPPWMGLLGPTIQAEVYDTVVITLKNMASHPVSLHAVGVSYWKASEGAEYDDQTSQREKEDDKVFPGGSHTYVWQVLKENGPMASDPLCLTYSYLSHVDLVKDLNSGLIGALLVCREGSLAKEKTQTLHKFILLFAVFDEGKSWHSETKNSLMQDRDAASARAWPKMHTVNGYVNRSLPGLIGCHRKSVYWHVIGMGTTPEVHSIFLEGHTFLVRNHRQASLEISPITFLTAQTLLMDLGQFLLFCHISSHQHDGMEAYVKVDSCPEEPQLRMKNNEEAEDYDDDLTDSEMDVVRFDDDNSPSFIQIRSVAKKHPKTWVHYIAAEEEDWDYAPLVLAPDDRSYKSQYLNNGPQRIGRKYKKVRFMAYTDETFKTREAIQHESGILGPLLYGEVGDTLLIIFKNQASRPYNIYPHGITDVRPLYSRRLPKGVKHLKDFPILPGEIFKYKWTVTVEDGPTKSDPRCLTRYYSSFVNMERDLASGLIGPLLICYKESVDQRGNQIMSDKRNVILFSVFDENRSWYLTENIQRFLPNPAGVQLEDPEFQASNIMHSINGYVFDSLQLSVCLHEVAYWYILSIGAQTDFLSVFFSGYTFKHKMVYEDTLTLFPFSGETVFMSMENPGLWILGCHNSDFRNRGMTALLKVSSCDKNTGDYYEDSYEDISAYLLSKNNAIEPRSFSQNGGGGSTGGTGGSSGGGTGSGGGGTGGSGGTDIQLTQSPSFLSASVGDRVTITCRASSSVRYIYWFQQKPGKAPKLLIYATSFRQSGVPSRFSGSGSGTEYTLTISSLQPEDFATYYCHQRNSFPYTFGQGTKLEIKGGGGSGGGGSGGGGSGGGGSEVQLVQSGAEVKKPGASVKVSCKASGYTFTTYAIHWVRQAPGQGLEWMGYINPSSGYTRYNPKFKGRVTMTRDKSTSTAYMELRSLRSDDTAVYYCWTGTRDYWGQGTTVTVSSGGGGDENQSPRSFQKKTRHYFIAAVERLWDYGMSSSPHVLRNRAQSGSVPQFKKVVFQEFTDGSFTQPLYRGELNEHLGLLGPYIRAEVEDNIMVTFRNQASRPYSFYSSLISYEEDQRQGAEPRKNFVKPNETKTYFWKVQHHMAPTKDEFDCKAWAYFSDVDLEKDVHSGLIGPLLVCHTNTLNPAHGRQVTVQEFALFFTIFDETKSWYFTENMERNCRAPCNIQMEDPTFKENYRFHAINGYIMDTLPGLVMAQDQRIRWYLLSMGSNENIHSIHFSGHVFTVRKKEEYKMALYNLYPGVFETVEMLPSKAGIWRVECLIGEHLHAGMSTLFLVYSNKCQTPLGMASGHIRDFQITASGQYGQWAPKLARLHYSGSINAWSTKEPFSWIKVDLLAPMIIHGIKTQGARQKFSSLYISQFIIMYSLDGKKWQTYRGNSTGTLMVFFGNVDSSGIKHNIFNPPIIARYIRLHPTHYSIRSTLRMELMGCDLNSCSMPLGMESKAISDAQITASSYFTNMFATWSPSKARLHLQGRSNAWRPQVNNPKEWLQVDFQKTMKVTGVTTQGVKSLLTSMYVKEFLISSSQDGHQWTLFFQNGKVKVFQGNQDSFTPVVNSLDPPLLTRYLRIHPQSWVHQIALRMEVLGCEAQDLYGGGSGGGGSGLVPRGSGGGSGGGGSGDIQLTQSPSFLSASVGDRVTITCRASSSVRYIYWFQQKPGKAPKLLIYATSFRQSGVPSRFSGSGSGTEYTLTISSLQPEDFATYYCHQRNSFPYTFGQGTKLEIKGGGGSGGGGSGGGGSGGGGSEVQLVQSGAEVKKPGASVKVSCKASGYTFTTYAIHWVRQAPGQGLEWMGYINPSSGYTRYNPKFKGRVTMTRDKSTSTAYMELRSLRSDDTAVYYCWTGTRDYWGQGTTVTVSS
notes: also called PPB 7855

% bound to Cyno RBC [1]: 0%
% bound to Cyno RBC [2]: -19.3%
percentage bound to human RBC [3]: 0%
percentage bound to human RBC [4]: 13.8%
% bound to Cyno RBC [5]: -12.5%
% bound to Cyno RBC [6]: -1.9%
% bound to Cyno RBC [7]: -9.8%
percentage bound to human RBC [8]: 16.3%
percentage bound to human RBC [9]: 20.5%
percentage bound to human RBC [10]: 37.1%
% bound to Cyno RBC [11]: -1.9%
percentage bound to human RBC [12]: 52.8%
percentage bound to human RBC [13]: 52.8%
percentage bound to human RBC [14]: 35.1%
percentage bound to human RBC [15]: 67.9%
percentage bound to human RBC [16]: 88.3%
percentage bound to human RBC [17]: 92.4%
percentage bound to human RBC [18]: 93.3%
percentage bound to human RBC [19]: 93%
Kd [20]: 13.3 nM
koff [20]: 0.00465 s⁻¹
kon [20]: 351000 M⁻¹ s⁻¹
B2: TPP-8741 FVIII-scFv fusion protein (other)
chain: ATRRYYLGAVELSWDYMQSDLGELPVDARFPPRVPKSFPFNTSVVYKKTLFVEFTDHLFNIAKPRPPWMGLLGPTIQAEVYDTVVITLKNMASHPVSLHAVGVSYWKASEGAEYDDQTSQREKEDDKVFPGGSHTYVWQVLKENGPMASDPLCLTYSYLSHVDLVKDLNSGLIGALLVCREGSLAKEKTQTLHKFILLFAVFDEGKSWHSETKNSLMQDRDAASARAWPKMHTVNGYVNRSLPGLIGCHRKSVYWHVIGMGTTPEVHSIFLEGHTFLVRNHRQASLEISPITFLTAQTLLMDLGQFLLFCHISSHQHDGMEAYVKVDSCPEEPQLRMKNNEEAEDYDDDLTDSEMDVVRFDDDNSPSFIQIRSVAKKHPKTWVHYIAAEEEDWDYAPLVLAPDDRSYKSQYLNNGPQRIGRKYKKVRFMAYTDETFKTREAIQHESGILGPLLYGEVGDTLLIIFKNQASRPYNIYPHGITDVRPLYSRRLPKGVKHLKDFPILPGEIFKYKWTVTVEDGPTKSDPRCLTRYYSSFVNMERDLASGLIGPLLICYKESVDQRGNQIMSDKRNVILFSVFDENRSWYLTENIQRFLPNPAGVQLEDPEFQASNIMHSINGYVFDSLQLSVCLHEVAYWYILSIGAQTDFLSVFFSGYTFKHKMVYEDTLTLFPFSGETVFMSMENPGLWILGCHNSDFRNRGMTALLKVSSCDKNTGDYYEDSYEDISAYLLSKNNAIEPRSFSQNGGGGSTGGTGGSSGGGTGSGGGGTGGSGGTDIQLTQSPSFLSASVGDRVTITCRASSSVRYIYWFQQKPGKAPKLLIYATSFRQSGVPSRFSGSGSGTEYTLTISSLQPEDFATYYCHQRNSFPYTFGQGTKLEIKGGGGSGGGGSGGGGSGGGGSEVQLVQSGAEVKKPGASVKVSCKASGYTFTTYAIHWVRQAPGQGLEWMGYINPSSGYTRYNPKFKGRVTMTRDKSTSTAYMELRSLRSDDTAVYYCWTGTRDYWGQGTTVTVSSGGGGSQNPPVLKRHQREITRTTLQSDQEEIDYDDTISVEMKKEDFDIYDEDENQSPRSFQKKTRHYFIAAVERLWDYGMSSSPHVLRNRAQSGSVPQFKKVVFQEFTDGSFTQPLYRGELNEHLGLLGPYIRAEVEDNIMVTFRNQASRPYSFYSSLISYEEDQRQGAEPRKNFVKPNETKTYFWKVQHHMAPTKDEFDCKAWAYFSDVDLEKDVHSGLIGPLLVCHTNTLNPAHGRQVTVQEFALFFTIFDETKSWYFTENMERNCRAPCNIQMEDPTFKENYRFHAINGYIMDTLPGLVMAQDQRIRWYLLSMGSNENIHSIHFSGHVFTVRKKEEYKMALYNLYPGVFETVEMLPSKAGIWRVECLIGEHLHAGMSTLFLVYSNKCQTPLGMASGHIRDFQITASGQYGQWAPKLARLHYSGSINAWSTKEPFSWIKVDLLAPMIIHGIKTQGARQKFSSLYISQFIIMYSLDGKKWQTYRGNSTGTLMVFFGNVDSSGIKHNIFNPPIIARYIRLHPTHYSIRSTLRMELMGCDLNSCSMPLGMESKAISDAQITASSYFTNMFATWSPSKARLHLQGRSNAWRPQVNNPKEWLQVDFQKTMKVTGVTTQGVKSLLTSMYVKEFLISSSQDGHQWTLFFQNGKVKVFQGNQDSFTPVVNSLDPPLLTRYLRIHPQSWVHQIALRMEVLGCEAQDLY
notes: The entry is the mature protein; mostly a 2 chain molecule; also called BDD-Bdom scFv; PPB 6559
